Results: the supplement of paper PMC10567573

B1: ESRRG (parent)
chain: YSCPATNECEITKRRRKSCQACRF

Variants of: B1
Assay: protein stability index of a GFP-peptide fusion (GPS, HEK-293T) (PSI 1-6); higher = more stable
Conditions: c terminus: a fixed tail appended
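Also: lentivirally expressed fusions sorted by FACS into six bins by GFP to DsRed ratio, PSI derived from sequencing read proportions per bin multiplied by bin number.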

| Variant | protein stability index |
| --- | --- |
| F24P | 3.51 |
| F24H | 4.18 |
| F24E | 4.19 |
| F24S | 3.89 |
| F24R | 3.41 |
| F24D | 4.07 |
| F24L | 3.61 |
| F24T | 4.12 |
| F24I | 3.67 |
| F24C | 3.62 |
| F24V | 4 |
| F24Y | 3.53 |
| F24W | 2.88 |
| F24M | 3.89 |
| F24Q | 3.7 |
| F24K | 4.41 |
| F24N | 4.28 |
| F24G | 4.18 |
